Test results as given in the RNAGym collection of RNA variant scans (doi:10.1021/acssynbio.7b00057).

B1: Pistol ribozyme (parent)
chain: GGGUCGUUGUUCCAUAAUCGCGUGGAUAUGGCACGCAAGUUUCUACCGGGCACCGUAAAUGUCCGACUGGAGCCGUUCGGGCGGCUAUAAACAGACCUCAGGCCCGAAGCGUGGCGGCACCUGCCGCCGGUGGUAAAAAAGAUCGGAAGAGCACACGUCU

Variants of: B1
Assay: aptazyme ON/OFF ratio, guanine; higher = stronger switching; co-transcriptional cleavage with and without guanine

Aptazyme ON/OFF ratio, 1.28:
U7C U8A G9U U10A U11A C12G C13U
U7C U8A G9U U10C C12G C13G

Aptazyme ON/OFF ratio, 1.23:
U7C U8A G9U U10G U11C C12G C13G
U7C U8A G9U U11A C12U C13G

Aptazyme ON/OFF ratio, 1.29:
U7C U8A G9U C12U C13U
U7C U8A G9U U10C U11C C12A C13G

Aptazyme ON/OFF ratio, 1.31:
U7C U8A U10A U11A C12A C13U
U7C U8A G9U U10A U11G C12U C13U
U7C U8A U10C C12G C13U

Aptazyme ON/OFF ratio, 1.24:
U7C U8A U10A U11G C12G C13U
U7C U8A U10C C12A C13U
U7C U8A G9U U10G U11C C12G C13U
U7C U8A G9U U10A C12U C13A
U7C U8A G9U U11G C12U C13U
U7C U8A U10A U11G C12U

Aptazyme ON/OFF ratio, 1.32:
U7C U8A U10A C12G C13A

Aptazyme ON/OFF ratio, 1.19:
U7C U8A G9U U10A U11A C13U
U7C U8A G9U U10A C12U C13U
U7C U8A G9U U10G C12A C13A
U7C U8A G9U U10C U11G C13U
U7C U8A U10C C12G C13A
U7C U8A U10A U11G C12G
U7C U8A G9U U10A U11A C12A C13U

Aptazyme ON/OFF ratio, 1.38:
U7C U8A G9U U10A U11A

Aptazyme ON/OFF ratio, 1.4:
U7C U8A G9U U11G C12U

Aptazyme ON/OFF ratio, 1.04:
U7C U8A G9U U10C U11G C13G
U7C U8A U10A U11C C13G
U7C U8A U10A U11C C12U C13G
U7C U8A U10A U11C C12U C13U
U7C U8A U10A U11G C13G

Aptazyme ON/OFF ratio, 1.16:
U7C U8A G9U U11C C12G C13U
U7C U8A G9U U10C U11G C12G C13A
U7C U8A G9U U10A C12U C13G
U7C U8A G9U U11G C12A C13G
U7C U8A G9U U10A U11G C12U C13G
U7C U8A G9U U10A U11G C12U C13A
U7C U8A G9U U10G U11C C12A C13G
U7C U8A G9U U11A C12U C13A
U7C U8A U10C C12G C13G

Aptazyme ON/OFF ratio, 1.18:
U7C U8A G9U U10A U11C C12A C13A
U7C U8A G9U U10C U11G C13A
U7C U8A G9U C12A C13G
U7C U8A G9U U10G U11C C12A C13A
U7C U8A G9U U10C C12G C13A
U7C U8A G9U U10A U11A C12A C13G

Aptazyme ON/OFF ratio, 1.05:
U7C U8A G9U U11C C12U C13A
U7C U8A G9U U11A C13G
U7C U8A G9U U10A U11C

Aptazyme ON/OFF ratio, 1.02:
U7C U8A G9U U11G C13G
U7C U8A G9U U10C U11C C12U C13U
U7C U8A G9U U10C U11C C12U C13G

Aptazyme ON/OFF ratio, 1.13:
U7C U8A G9U U10C C12A C13A
U7C U8A G9U U10C U11A C12A
U7C U8A U10A U11G C12G C13G
U7C U8A G9U U10A U11A C13A
U7C U8A G9U U10G C12A C13G
U7C U8A G9U U10A U11G C12U
U7C U8A U10A U11C C12G C13U
U7C U8A G9U U10A U11C C12U C13G
U7C U8A G9U U10A U11A C12A C13A

Aptazyme ON/OFF ratio, 1.22:
U7C U8A G9U U10G C12G C13U
U7C U8A U10A C12G C13G
U7C U8A G9U U10G U11C C12G C13A
U7C U8A G9U U11G C12U C13A
U7C U8A G9U U10A U11C C12A C13U
U7C U8A U10A U11C C12G C13G
U7C U8A G9U U11A C12U C13U
U7C U8A G9U U10C C12G C13U

Aptazyme ON/OFF ratio, 1.2:
U7C U8A G9U U10A U11A C12G C13G
U7C U8A G9U U11G C12A C13U
U7C U8A U10A U11A C12G
U7C U8A G9U U11A C13A

Aptazyme ON/OFF ratio, 1.09:
U7C U8A G9U U11G C12A
U7C U8A G9U U10G U11A C12A C13G
U7C U8A G9U U10A U11G C12A C13A
U7C U8A G9U C12U C13A
U7C U8A G9U U10C U11A C12U C13G
U7C U8A G9U U10C U11C C12G C13A

Aptazyme ON/OFF ratio, 1.36:
U7C U8A G9U U10A U11G

Aptazyme ON/OFF ratio, 1.17:
U7C U8A U10A U11A C12A C13G
U7C U8A U10C C12A C13A
U7C U8A G9U U10A U11A C12G
U7C U8A G9U U11C C12G C13A
U7C U8A G9U U11G C12U C13G
U7C U8A G9U U10G C12A C13U
U7C U8A G9U U10A U11C C12A C13G
U7C U8A G9U U11A C12G C13A
U7C U8A G9U U10C U11A C13U
U7C U8A G9U U11G C13A
U7C U8A G9U U11G C13U
U7C U8A G9U U11A C13U

Aptazyme ON/OFF ratio, 1.07:
U7C U8A G9U U10G U11C C12U
U7C U8A G9U U10A U11A C13G
U7C U8A U10C C12A C13G
U7C U8A G9U U10C U11A C13G
U7C U8A G9U U10C U11C C12G C13U
U7C U8A G9U U10C C13G

Aptazyme ON/OFF ratio, 1.12:
U7C U8A G9U U10C U11A C12G
U7C U8A G9U U10C U11A C12U
U7C U8A G9U U10G C12G C13A
U7C U8A G9U U10G C12G C13G
U7C U8A G9U U10G C12A
U7C U8A G9U U11C C12G C13G
U7C U8A G9U U10G U11A C12U C13A
U7C U8A G9U U11G C12A C13A
U7C U8A G9U U10C U11C C12A C13U

Aptazyme ON/OFF ratio, 1.15:
U7C U8A G9U U10C C12A C13U
U7C U8A G9U U10C C12A C13G
U7C U8A G9U U11G C12G
U7C U8A G9U U10A U11G C12A C13G
U7C U8A G9U U10C U11A C12U C13U
U7C U8A U10A U11C C12G C13A
U7C U8A G9U U11A C12G C13U
U7C U8A G9U U11A C12G C13G
U7C U8A G9U U10C U11A C13A
U7C U8A G9U C12A C13U
U7C U8A U10A U11A C12A
U7C U8A G9U U10G U11G C12U C13G
U7C U8A U10A U11G C13A

Aptazyme ON/OFF ratio, 1.26:
U7C U8A G9U U10G U11C C12G
U7C U8A U10A C12G C13U
U7C U8A U10A U11A C12U

Aptazyme ON/OFF ratio, 1.06:
U7C U8A U10A U11C C12A C13A
U7C U8A U10A U11C C12A C13G
U7C U8A U10A U11C C12A C13U
U7C U8A G9U U10C U11C C12A C13A
U7C U8A U10A U11G C12A
U7C U8A G9U U10C U11G

Aptazyme ON/OFF ratio, 1.14:
U7C U8A G9U U10A U11A C12U
U7C U8A G9U U10A U11G C12A C13U
U7C U8A G9U C12U C13G
U7C U8A G9U U10A U11G C12G
U7C U8A G9U C12A C13A
U7C U8A G9U U10A U11C C12U C13A

Aptazyme ON/OFF ratio, 1.27:
U7C U8A G9U U10G C12U C13U
U7C U8A G9U U10G U11C C12A C13U
U7C U8A G9U U10C U11A

Aptazyme ON/OFF ratio, 1.21:
U7C U8A G9U U10G U11C C12A
U7C U8A G9U U10G U11A C12A C13U
U7C U8A G9U U10A U11C C12U C13U
U7C U8A G9U U11C C12U C13U
U7C U8A U10A U11G C13U

Aptazyme ON/OFF ratio, 1.11:
U7C U8A G9U U10C U11G C12G C13U
U7C U8A G9U U10C U11A C12U C13A
U7C U8A G9U U10G U11A C12U C13G
U7C U8A G9U U10C U11C C12G C13G
U7C U8A G9U U10G U11G C12U C13A

Aptazyme ON/OFF ratio, 1.35:
U7C U8A G9U U10G U11A C12A C13A

Aptazyme ON/OFF ratio, 1.08:
U7C U8A G9U U10G C12G
U7C U8A G9U U10C U11G C12G C13G
U7C U8A G9U U10A U11A C12G C13A
U7C U8A G9U U10A U11G C12A
U7C U8A U10A U11C C12U C13A

Aptazyme ON/OFF ratio, 1.25:
U7C U8A U10A U11A C12A C13A
U7C U8A G9U U10G C12U C13G

Aptazyme ON/OFF ratio, 1.03:
U7C U8A U10A U11G C12G C13A
U7C U8A U10A U11C C13A
U7C U8A G9U U10C U11C C12U C13A

Aptazyme ON/OFF ratio, 1.3:
U7C U8A G9U U10G U11G C12U C13U

Aptazyme ON/OFF ratio, 1.01:
U7C U8A U10A U11C C13U
U7C U8A G9U U10C U11C

Aptazyme ON/OFF ratio, 1.59:
U7C U8A G9U

Aptazyme ON/OFF ratio, 1:
U7C U8A G9U U11C C12U C13G

Aptazyme ON/OFF ratio, 1.1:
U7C U8A G9U U10A U11A C12A
U7C U8A G9U U10G U11A C12U C13U
U7C U8A G9U U10G C12U C13A

Aptazyme ON/OFF ratio, 1.41:
U7C U8A G9U U10G C12U
